Source: patent US20230242902A1, “A HIGHLY ERROR-PRONE […] R[…] FOR TARGETED CONTINUOUS EVOLUTION IN VIVO” (The Regents of the University of California, priority 2017, published 2023)
Where a chain is given by its changes, count along the chain named. Numbers in names are those of the source.

B1: L640A, M779L (protein)
chain: MDYKDKALNDLRNVYADFDSLPLDFRQILIKDRATLLQKEDVEKKILERQEDAKKYAEYLKQSEIPERISLPNIKRHKGVSISFEETSEDMVLEPRPFIFDGLNIRCFRRETIFSLKNKILNMVKESSSFKNVSRQSVSFMYFKIFNKGKVIASTKSVNIYEDKIDERLEDLCNNFDDVLKKIIDVTYGYESLFVSETYSYVIFYAKSIYFPQPRCVNNWGNNIPNILTFDSFKLFTANKNNVSCIKQCSRFLWQKDFNTLEEMIEYKNGNICIVTPQLHINDVRDIKSFNDIRLYSESPIKTFSVIDNTITYLFYFKEHLGVIFNITKSRHDRRVTKFSPLSKFSDVKNITVCFDIESYFDPEKESNQVNIPFICCASIIYNKVIGNIVDFEGRDCVAQMIEYVVDICGELNISSVELIAHNGGGYDFHYILSSMYNPAAIKNILIRNNSFISFNFAHDGVKFSVKDSYSFLLCSLANASKAFLNEETFKKTDFPHHDLKTADDLYKVYKEWSSVNTEINHVVEKEKLLITSEHIVNFTKNDKSKTLIEWSKDYCRNDVLVLSKVWLEFKNAVEDIFNCELVDQTMTLAGLSYKLFQANMPFDVELRHPNKEDYFNMREALIGGRCISVNGIYKDVLCADVKSLYPASMAFYDQPYGSFKRVSSRPKDELGIYYVRVTPNRNNKSNFFPIRSHNKITYNNFEESTYIAWYTNVDIDIGLSEGHNIEYIPFDSYGNIGYSWSKKGKIFEKYIKDVLYKLKIKYEKQNNKVKRNVIKIILNSLWGKFAQKWVNFEYFIKSEDDIDFESEEAYKIWDTDFMLIKKIKESTYSSKPIQNGVFTLSWARYHMKSIWDAGAKEGAECIYSDTDSIFVHKEHFKKNAKFMLNGLKVPIIGSEVGQLELECEFDKLLCAGKKQYMGFYTYFQDGKPCIKEKKRFKGIPSNYIIPELYAHLLSGADKEAKIQFLKFRREWGSVKGYIENKTVKAT
B2: L640N, I777A (protein)
chain: B1 chain with A640N, I777A, L779M
B3: L640G, I775A (protein)
chain: B1 chain with A640G, I775A, L779M
B4: L640G, I777A (protein)
chain: B1 chain with A640G, I777A, L779M
B5: L640G, I777K, W814N (protein)
chain: B1 chain with A640G, I777K, L779M, W814N
B6: L640Y, I777A (protein)
chain: B1 chain with A640Y, I777A, L779M
B7: L645M, I777K (protein)
chain: B1 chain with A640L, L645M, I777K, L779M
B8: L645M, M779L (protein)
chain: B1 chain with A640L, L645M
B9: F652L, I775A (protein)
chain: B1 chain with A640L, F652L, I775A, L779M
B10: Y653L, I775A (protein)
chain: B1 chain with A640L, Y653L, I775A, L779M
B11: Y653L, I777A (protein)
chain: B1 chain with A640L, Y653L, I777A, L779M
B12: G410M: TP-DNAP1 variant (protein)
chain: B1 chain with G410M, A640L, L779M
B13: S289K: TP-DNAP1 variant (protein, listed as Kluyveromyces lactis)
chain: B1 chain with S289K, A640L, L779M

Assays:
p1-encoded leu2 (Q180*) = test: Large-scale p1 fluctuation tests of p1-encoded leu2 (Q180*), per-base substitution rate; assay type: cell-based, S. cerevisiae; settings: per-base substitution rate, p1-encoded leu2 (Q180*), large-scale fluctuation test
Source text: All three TP-DNAP1 libraries were screened through small scale p1 fluctuation tests in a metastable S. cerevisiae strain, OR-Y24. OR-Y24 contains w.t. p1 and recombinant p1 that lacks w.t. TP-DNAP1, and instead, encodes a standardized fluorescence reporter of p1 copy number (Table 1), and a disabled version of the LEU2 selection marker (leu2 (Q180*)). As described previously (Ravikumar et al., 2014), leu2 (Q180*) contains a C→T mutation at base 538 in LEU2 at a site permissive to all single point mutants that generate missense mutations. Reversion to functional LEU2 can be detected on medium lacking leucine.
Large-scale fluctuation tests of p1-encoded leu2 (Q180*) were performed to precisely determine per-base substitution rates for individually cloned or isolated TP-DNAP1 variants. Large-scale p1 fluctuation tests are performed similarly to small-scale p1 fluctuation tests, with several modifications. First, large-scale p1 fluctuation tests were typically performed with 36-48 replicates. For highly error-prone TP-DNAP1s obtained from later rounds of screening, fewer replicates (3-16) were used, which is sufficient for similar precision (Foster et al., 2006). Second, p1 copy number was determined by the flow cytometry method, described below. Third, cell titers were measured for each fluctuation test to estimate the average number of cells per culture. Cell resuspensions were diluted and plated on solid SC-UH medium, and colony counts were determined after incubation at 30° C. for 2-3 days. Alternatively, cell resuspensions were diluted and subject to an event-count measurement via flow cytometry. Fourth, inoculums of highly error-prone TP-DNAP 1 s occasionally contained pre-existing mutants, despite the 1:10,000 dilution, so mutant frequencies were estimated by plating pre-cultures on solid SC-UHLW, pH 5.8 medium. Plates were incubated for 2-3 days, in parallel with cultures grown for fluctuation tests. Pre-culture mutant titers were counted to estimate the number of replicates in the fluctuation test expected to contain pre-existing mutants (n). Revertants were counted from all replicates of the fluctuation tests, counts were sorted, and n replicates with the highest counts were omitted from calculations.
To calculate per-base substitution rates, fluctuation data were analyzed by the maximum likelihood method, implemented using newton.LD.plating in rSalvador 1.7 (Zheng, 2017). Phenotypic mutation rates were calculated by normalizing to the average number of cells per culture. Phenotypic mutation rates were divided by the measured p1 copy number and by the number of ways leu2 (Q180*) can revert to LEU2 (2.33 for the ochre codon) to yield per-base substitution rates. 95% confidence intervals were similarly scaled by these factors. All data related to large-scale p1 fluctuation tests are fully described in Table 2.

p1 = p1 copy number by p1-encoded mKate2 fluorescence; assay type: cell-based, S. cerevisiae; settings: OR-Y24, measured in triplicate
Outline: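 Copy number was inferred from p1-encoded mKate2 fluorescence in saturated OR-Y24 cultures (triplicate), calibrated linearly against qPCR of p1 leu2 relative to genomic LEU3.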

Molecule	Mutation rate (s.p.b.) (p1-encoded leu2 (Q180*))	Mean fold-increase over w.t. (p1 copy number) (p1)
B1	2.79 × 10^−9 s.p.b.	
B2	3.04 × 10^−8 s.p.b.	
B3	1.81 × 10^−8 s.p.b.	
B4	9.28 × 10^−8 s.p.b.	
B5	2.63 × 10^−7 s.p.b.	
B6	5.70 × 10^−8 s.p.b.	
B7	9.19 × 10^−9 s.p.b.	
B8	4.99 × 10^−9 s.p.b.	
B9	6.08 × 10^−9 s.p.b.	
B10	9.70 × 10^−9 s.p.b.	
B11	2.02 × 10^−8 s.p.b.	
B12		2.55 fold
B13		2.02 fold
